# Experimental data reported in patent US20260191981A1 (ARROWHEAD PHARMACEUTICALS, published 2026).
# B1: Fab0070 (Fab, V domains shown)
# VH: EVQLVESGGGLVQPGGSLRLSCATSGFTFTSYWMHWVRQAPGKGLEWVAEINPTNGRTNYIEKFKSRITLSVDKSKSTVYLQMNSLRAEDTAVYYCARGTRAYHYWGQGTLVTVSS
# VL: DIQLTQSPSSLSASVGDRVTITCRASDKLYSNLAWYQQKPGKAPKLLIYDATLLASGVPSRFSGSGSGTDYTLTISSLQPEDFATYYCQHFWGTPLTFGQGTKVEIKR
# B2: Fab0002 (Fab, V domains shown)
# VH: EVQLVQSGAEVKKPGASVKVSCKASGYTFTSYWMHWVRQAPGQRLEWIGEINPTNGRTNYIEKFKSRATLTVDKSASTAYMELSSLRSEDTAVYYCARGTRAYHYWGQGTMVTVSS
# VL: DIQMTQSPSSLSASVGDRVTITCRASDNLYSNLAWYQQKPGKSPKLLVYDATNLADGVPSRFSGSGSGTDYTLTISSLQPEDFATYYCQHFWGTPLTFGQGTKVEIKR
# B3: Fab0074 (Fab, V domains shown)
# VH: EVQLVESGGGLVQPGGSLRLSCATSGYTFKSYWMHWVRQAPGKGLEWVAEINPTNGRTNYIEKFKSRITLSVDKSKSTVYLQMNSLRAEDTAVYYCARGTRAYHYWGQGTLVTVSS
# VL: DIQLTQSPSSLSASVGDRVTITCRASDGLYSNLAWYQQKPGKAPKLLIYDAKNLASGVPSRFSGSGSGTDYTLTISSLQPEDFATYYCQHFWGTPLTFGQGTKVEIKR
# B4: Fab0071 (Fab, V domains shown)
# VH: EVQLVESGGGLVQPGGSLRLSCATSGYTFNSYWMHWVRQAPGKGLEWVAEINPTNGRTNYIEKFKSRITLSVDKSKSTVYLQMNSLRAEDTAVYYCARGTRAYHYWGQGTLVTVSS
# VL: DIQLTQSPSSLSASVGDRVTITCRASDGLYSNLAWYQQKPGKAPKLLIYDARNLASGVPSRFSGSGSGTDYTLTISSLQPEDFATYYCQHFWGTPLTFGQGTKVEIKR
# B5: Fab0072 (Fab, V domains shown)
# VH: EVQLVESGGGLVQPGGSLRLSCATSGYTFNSYWMHWVRQAPGKGLEWVAEINPTNGRFNYIEKFKSRITLSVDKSKSTVYLQMNSLRAEDTAVYYCARGTRAYHYWGQGTLVTVSS
# VL: DIQLTQSPSSLSASVGDRVTITCRASDNLYRNLAWYQQKPGKAPKLLIYDARNLASGVPSRFSGSGSGTDYTLTISSLQPEDFATYYCQHFWGTPLTFGQGTKVEIKR
# B6: Fab0073 (Fab, V domains shown)
# VH: EVQLVESGGGLVQPGGSLRLSCATSGYTFKSYWMHWVRQAPGKGLEWVAEINPTNGRTNYIEKFKSRITLSVDKSKSTVYLQMNSLRAEDTAVYYCARGTRAYHYWGQGTLVTVSS
# VL: DIQLTQSPSSLSASVGDRVTITCRASDNLYRNLAWYQQKPGKAPKLLIYDATKLASGVPSRFSGSGSGTDYTLTISSLQPEDFATYYCQHFWGTPLTFGQGTKVEIKR
# Columns and labels:
# [1] = biological target: T1, human transferrin receptor 1 (hTfR1) (human, UniProt P02786 89-760, limits assumed); experiment: competition ELISA, Fab
# T1 construct: The selections used the biotinylated ECD domain of hTfR1
# [2] = biological target: T2, cynomolgus monkey transferrin receptor 1 (cTfR1) (cynomolgus monkey, UniProt H9EXL1 89-760 (rhesus entry)); experiment: competition ELISA, Fab
# T2 construct: The ELISA against cTfR1 is not described in the text
# [3] = biological target: T3, his-tagged cTfR1 (Acro Biosystems p/n TFR-C524a) (cynomolgus monkey, UniProt H9EXL1 89-760 (rhesus entry)); experiment: SPR, Biacore X100, His-tagged TfR1 captured by anti-His
# T3 construct: Bought reagent of the SPR assay
# Description: Samples were analyzed via Surface Plasmon Resonance (SPR) to determine kinetics against cynomolgus monkey transferrin receptor 1 (cTfR1). Briefly, a Biacore X100 (Cytiva) was used for SPR measurements using a CM5 chip (carboxymethylated dextran surface, Cytiva p/n BR100399) with anti-histidine antibody irreversibly immobilized on the surface of both flow cells for the reversible capture of his-tagged cTfR1 (Acro Biosystems p/n TFR-C524a). The anti-histidine antibody was irreversibly immobilized via amine coupling using Cytiva provided Amine Coupling Kit (p/n BR100050) and His Capture Kit (p/n 28995056). […] Sample diluent was prepared in house and is composed of 10 mM HEPES buffer pH 7.4, 150 mM NaCl, 3 mM EDTA, and 0.05% Tween 20. Cytiva caps and vials compatible for Biacore X₁₀₀ were used for sample analysis. Each analysis cycle consists of a capture step followed by sample or blank injection, and finally a regeneration step that removes any sample and cTfR1 on the sensor surface. The capture step was performed at 5 μL/min with a contact time of 24 seconds over the active flow cell only, followed by a fluidics wash with 0.1% Tween 20. Generally, 2 μg/mL hTfR1 was a sufficient concentration to observe adequate hTfR1 captured consistently between cycles. Sample or buffer was injected at 30 μL/min with a contact time of 180 seconds and dissociation time of 180 seconds followed by a fluidics wash with 0.1% Tween 20. A 10 mM glycine solution at pH 1.5 (provided in His Capture Kit) was used for regeneration at 30 μL/min with a 60 second contact time. A cycle was performed for each sample concentration analyzed along with one cycle repeating one concentration for variability evaluation and 2-3 buffer cycles. Results were analyzed in Biacore Evaluation Software. Buffer cycles were averaged and subtracted from sample injections prior to kinetic fitting. A monovalent or kinetic fit was specified as relevant for the sample analyzed. Accuracy of the fit is evaluated and data points are excluded as applicable.
# [4] = biological target: T4, his-tagged hTfR1 (Acro Biosystems p/n CD1-H5243) (human, UniProt P02786 89-760); experiment: as above
# T4 construct: Bought reagent of the SPR assay
# Description: Samples were analyzed via Surface Plasmon Resonance (SPR) to determine kinetics against human transferrin receptor 1 (hTfR1). Briefly, a Biacore X100 (Cytiva) was used for SPR measurements using a CM5 chip (carboxymethylated dextran surface, Cytiva p/n BR100399) with anti-histidine antibody irreversibly immobilized on the surface of both flow cells for the reversible capture of his-tagged hTfR1 (Acro Biosystems p/n CD1-H5243). The anti-histidine antibody was irreversibly immobilized via amine coupling using Cytiva provided Amine Coupling Kit (p/n BR100050) and His Capture Kit (p/n 28995056). […] Sample diluent was prepared in house and is composed of 10 mM HEPES buffer pH 7.4, 150 mM NaCl, 3 mM EDTA, and 0.05% Tween 20. Cytiva caps and vials compatible for Biacore X100 are used for sample analysis. Each analysis cycle consists of a capture step followed by sample or blank injection, and finally a regeneration step that removes any sample and hTfR1 on the sensor surface. The capture step was performed at 5 μL/min with a contact time of 24 seconds over the active flow cell only, followed by a fluidics wash with 0.1% Tween 20. Generally, 2 μg/mL hTfR1 is a sufficient concentration to observe adequate hTfR1 captured consistently between cycles. Sample or buffer was injected at 30 μL/min with a contact time of 180 seconds and a dissociation time of 180 seconds followed by a fluidics wash with 0.1% Tween 20. A 10 mM glycine solution at pH 1.5 (provided in His Capture Kit) was used for regeneration at 30 μL/min with a 60 second contact time. A cycle was performed for each sample concentration analyzed along with one cycle repeating one concentration for variability evaluation and 2-3 buffer cycles. Results were analyzed in Biacore Evaluation Software. Buffer cycles were averaged and subtracted from sample injections prior to kinetic fitting. A monovalent or kinetic fit was specified as relevant for the sample analyzed. Accuracy of the fit was evaluated and data points are excluded as applicable. […]
# [5] = biological target: T1, human transferrin receptor 1 (hTfR1); experiment: competition phage ELISA (phage-displayed Fab)
# [6] = biological target: T2, cynomolgus monkey transferrin receptor …; experiment: competition phage ELISA (phage-displayed Fab)
# T3 sequence (chain, as listed by the source): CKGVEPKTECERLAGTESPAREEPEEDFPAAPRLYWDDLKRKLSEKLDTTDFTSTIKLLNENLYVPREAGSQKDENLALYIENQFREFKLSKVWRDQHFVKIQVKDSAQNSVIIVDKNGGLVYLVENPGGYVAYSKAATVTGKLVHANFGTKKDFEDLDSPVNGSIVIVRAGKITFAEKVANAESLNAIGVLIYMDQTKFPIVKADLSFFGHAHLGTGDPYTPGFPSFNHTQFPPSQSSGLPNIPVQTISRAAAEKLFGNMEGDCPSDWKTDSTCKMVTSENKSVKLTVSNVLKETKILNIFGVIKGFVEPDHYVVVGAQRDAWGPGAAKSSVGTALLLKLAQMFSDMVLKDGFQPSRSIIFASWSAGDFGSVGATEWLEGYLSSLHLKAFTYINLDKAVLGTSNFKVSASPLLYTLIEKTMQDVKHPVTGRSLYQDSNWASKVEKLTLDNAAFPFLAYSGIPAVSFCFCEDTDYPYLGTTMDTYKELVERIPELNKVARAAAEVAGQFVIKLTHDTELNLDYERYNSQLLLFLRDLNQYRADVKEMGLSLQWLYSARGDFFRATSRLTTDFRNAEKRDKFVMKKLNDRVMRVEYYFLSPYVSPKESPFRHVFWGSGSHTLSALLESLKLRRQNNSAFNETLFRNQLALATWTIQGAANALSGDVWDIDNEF
# T2 sequence (chain, as listed by the source): as above
# T4 sequence (P02786 89-760 limits assumed): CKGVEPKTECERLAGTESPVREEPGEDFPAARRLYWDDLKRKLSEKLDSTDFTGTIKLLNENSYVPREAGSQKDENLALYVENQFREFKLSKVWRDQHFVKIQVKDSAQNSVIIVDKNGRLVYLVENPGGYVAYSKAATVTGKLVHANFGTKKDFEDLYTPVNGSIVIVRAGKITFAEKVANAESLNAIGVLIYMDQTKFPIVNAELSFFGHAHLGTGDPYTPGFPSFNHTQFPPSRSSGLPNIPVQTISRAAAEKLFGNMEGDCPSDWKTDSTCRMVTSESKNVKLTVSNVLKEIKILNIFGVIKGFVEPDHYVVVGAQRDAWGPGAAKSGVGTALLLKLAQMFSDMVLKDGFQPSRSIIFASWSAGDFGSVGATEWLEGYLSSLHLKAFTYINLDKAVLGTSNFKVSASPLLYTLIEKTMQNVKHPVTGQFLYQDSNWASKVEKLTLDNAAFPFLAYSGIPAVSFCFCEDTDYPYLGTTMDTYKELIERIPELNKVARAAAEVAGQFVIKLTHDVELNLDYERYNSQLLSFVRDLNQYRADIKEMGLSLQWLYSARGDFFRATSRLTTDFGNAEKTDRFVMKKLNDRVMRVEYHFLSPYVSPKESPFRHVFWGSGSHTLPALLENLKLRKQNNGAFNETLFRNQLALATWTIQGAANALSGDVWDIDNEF
# T1 sequence (P02786 89-760 limits assumed): as above
Binder,Kd [1] [nM],Kd [2] [nM],Kd [3] [nM],koff [3] [s⁻¹],kon [3] [M⁻¹ s⁻¹],Kd [4] [nM],koff [4] [s⁻¹],kon [4] [M⁻¹ s⁻¹],Kd [5] [nM],Kd [6] [nM]
B1,1.11,15.3,4.52,0.00582,1.29e+06,0.923,0.0012,1.3e+06,0.49,1.39
B2,7.28,33.8,25.2,0.0155,614000,7.68,0.00499,649000,2.8,0.96
B3,0.46,17.5,4.31,0.0105,2.44e+06,0.471,0.000782,1.66e+06,0.46,2.14
B4,0.43,53.3,8.13,0.0112,1.38e+06,0.553,0.000865,1.56e+06,0.45,0.74
B5,0.19,11.9,3.88,0.0108,2.78e+06,0.331,0.000614,1.86e+06,0.19,1.18
B6,0.32,8.68,2.85,0.00677,2.38e+06,0.351,0.00065,1.85e+06,0.29,1.95
